Reference: patent US20250375530A1 (ALMAC DISCOVERY, published 2025)
Positions count from the first letter of the chain named. Each block holds one binder with its values, some of them ahead of it.

Experiments:
human ROR1-Fc (CHO) [1] = molecular target: T1, human ROR1-Fc (CHO) (human); test: BLI, hROR1; MMAE conjugate
T1 construct: also called hROR1-Fc; huROR1-Fc

mouse ROR1-Fc (CHO) = molecular target: T2, mouse ROR1-Fc (CHO) (mouse); test: ELISA, mROR1-hFc coated
T2 construct: also called mROR1-hFc; mROR1
T2 sequence (chain, as listed by the source limits assumed): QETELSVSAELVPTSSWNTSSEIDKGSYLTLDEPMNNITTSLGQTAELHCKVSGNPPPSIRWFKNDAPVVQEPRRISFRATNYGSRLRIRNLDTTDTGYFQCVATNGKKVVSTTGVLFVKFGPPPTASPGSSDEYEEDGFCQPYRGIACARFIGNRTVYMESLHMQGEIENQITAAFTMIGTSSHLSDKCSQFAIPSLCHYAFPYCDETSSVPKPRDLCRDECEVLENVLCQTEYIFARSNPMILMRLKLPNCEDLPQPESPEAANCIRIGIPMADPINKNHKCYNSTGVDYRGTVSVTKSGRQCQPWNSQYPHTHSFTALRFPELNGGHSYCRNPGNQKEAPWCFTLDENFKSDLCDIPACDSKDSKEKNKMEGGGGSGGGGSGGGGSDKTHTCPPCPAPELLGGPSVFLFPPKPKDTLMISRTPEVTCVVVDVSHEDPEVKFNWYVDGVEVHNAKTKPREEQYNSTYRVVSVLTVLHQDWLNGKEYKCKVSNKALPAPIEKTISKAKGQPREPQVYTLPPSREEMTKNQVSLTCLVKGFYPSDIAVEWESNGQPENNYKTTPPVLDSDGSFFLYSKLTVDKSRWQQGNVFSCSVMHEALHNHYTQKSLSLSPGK

human ROR1-Fc (CHO) [2] = molecular target: T1, human ROR1-Fc (CHO); test: ELISA, plate coated with human ROR1-hFc, HisMyc-tagged VNAR at a single 5 ug/mL, Abs 450 nm; no blank bar shown
human ROR1-Fc (CHO) [3] = molecular target: T1, human ROR1-Fc (CHO); test: ELISA dose response, plate coated with hROR1-Fc, HisMyc-tagged VNAR 0-5 ug/mL (linear axis), Abs 450 nm

T1 sequence (chain, as listed by the source limits assumed): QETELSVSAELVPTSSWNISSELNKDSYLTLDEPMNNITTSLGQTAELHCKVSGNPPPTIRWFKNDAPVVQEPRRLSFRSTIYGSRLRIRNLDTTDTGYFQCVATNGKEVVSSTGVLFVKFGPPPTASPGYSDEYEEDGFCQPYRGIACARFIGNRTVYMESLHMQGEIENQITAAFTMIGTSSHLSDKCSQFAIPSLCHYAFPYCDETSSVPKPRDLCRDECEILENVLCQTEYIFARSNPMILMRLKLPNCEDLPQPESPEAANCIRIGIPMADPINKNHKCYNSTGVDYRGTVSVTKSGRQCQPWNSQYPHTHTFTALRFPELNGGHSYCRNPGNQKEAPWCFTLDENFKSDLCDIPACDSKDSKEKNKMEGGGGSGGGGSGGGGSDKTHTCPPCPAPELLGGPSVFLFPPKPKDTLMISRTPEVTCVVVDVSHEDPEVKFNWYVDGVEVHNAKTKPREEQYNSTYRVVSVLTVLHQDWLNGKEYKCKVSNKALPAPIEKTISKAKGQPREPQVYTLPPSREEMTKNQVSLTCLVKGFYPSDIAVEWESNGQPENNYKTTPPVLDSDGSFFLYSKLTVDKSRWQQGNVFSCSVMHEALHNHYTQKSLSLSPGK

B1: G3CP G4-P3A1G1AE3 MA-vc-PAB-MMAE conjugate (Cys linker) (VNAR, not shown: small tags and cut ends)
chain: TRVDQSPSSLSASVGDRVTITCVLTDANYGLAATYWYRKNPGSSNKERISISGRYSESVNKGTMSFTLTISSLQPEDSATYYCRAYPWGAGAPYNVQWYDGAGTKVEIKPGVQPCPGGGGGSTRVDQSPSSLSASVGDRVTITCVLTGTRYGLYSTYWYRKNPGSSDEERISISGRYSESVNKGTKSFTLTISSLQPEDSATYYCRAREARHPWLRQWYDGAGTKVEIK
modifications: MA-vc-PAB-MMAE on the single cysteine of the linker PGVQPCPGGGGGS
notes: DAR 1.0
- Kd (human ROR1-Fc (CHO) [1]): 0.76 nM

B2: P3A1 G1 AE3.S (VNAR)
VNAR: TRVDQSPSSLSASVGDRVTITCVLTGTRYGLYSSTYWYRKNPGSSDEERISISGRYSESVNKGTKSFTLTISSLQPEDSATYYCRAREARHPWLRQWYDGAGTKVEIKQ
notes: VNAR; entry includes the HisMyc tag
- binding result (mouse ROR1-Fc (CHO)): binds
- binding result (human ROR1-Fc (CHO) [2]): binds

B3: P3A1 G1 AF7.S (VNAR)
VNAR: B2 VNAR with R28K, S33A, S45T, E47K, S51I, S53G, K62N, G63R, T64S
notes: as for B2
- binding result (human ROR1-Fc (CHO) [3]): binds

The remaining lines, values ahead:

- binding result (human ROR1-Fc (CHO) [3]): binds
B4: P3A1 G1 NAG8.S (VNAR)
VNAR: B2 VNAR with R28K, S33A, S45P, D46N, E47K, E48D, I50M, S51I, S53G, K62N
notes: as for B2

- binding result (mouse ROR1-Fc (CHO)): binds
- binding result (human ROR1-Fc (CHO) [2]): binds
B5: P3A1 G1 NAC6.S (VNAR)
VNAR: B2 VNAR with G26D, G30A, S45T, S53G, T64S
notes: as for B2
